Laboratory results: patent publication US8404647B2, “Peptidylarginine deiminase (PAD) inhibitors” (Chiralix B.V., priority 2008, dated 2013)
Marks after values point to notes of the source that are not given here. Ends that are not written are not given here.

Key:
PAD2 = PAD2 (Homo sapiens, UniProt Q9Y2J8); test: Conversion (R to Cit) of substrate peptides by PAD2, mass spectrometry; format: biochemical; details: for Conversion (%): Table 9, PAD2; for Conversion by PAD2 (%): Table 10
Description: In a similar fashion as for PAD4 we identified improved peptide substrates for PAD2. Again L1 was used as a lead compound. The set of 152 peptides from Table 3 was used and testing was performed as described before.
(§1) Conversion of arginine into citrulline in the substrate peptides by PAD2 or PAD4 using mass spectrometry was performed as follows. A candidate substrate peptide was incubated with a PAD as indicated for several hours at 37° C. The reaction was quenched by the addition with acetic acid. A sample was analysed on a Qtof mass spectrometer (Micromass, UK) and the mass spectrum was compared with that of the same peptide not treated with PAD. Normally, 2^+- and 3^+-ions are detected. The conversion (ΔM=0.98 Da) was calculated on the 2^+- and 3^+-ions individually, and subsequently averaged taking into account the relative peak height of the 2^+- and 3^+-signals (see FIG. 5).

PAD4 = PAD4 (Homo sapiens, UniProt Q9UM07); test: Conversion (R to Cit) of substrate peptides by PAD4, mass spectrometry; format: biochemical; details: for Conversion by PAD4 (%): Table 10; for Conversion (%): PAD4; for Conversion: Table 7, PAD4, test system with 3 times less enzyme
Description: From previous studies it was known that D-S-Q-F-A-F-R-G-A-S-A-S-D (designated here as L1: SEQ ID NO: 11) is a substrate for PAD2 and PAD 4. To obtain better substrates, and subsequently powerful inhibitors, we intended to identify structural elements that improve substrate properties. A set of 152 individual analog peptides was generated, each differing from L1 by one amino acid at one of the positions −4 to −1 or 1 to 4.
In Table 3 the conversion of each analog (R to Cit conversion) is depicted. Values of the analogs relate to the conversion of the analog compared to the conversion of L1 under standard conditions (100 means a conversion equal to L1, 50 means conversion of 50% of that of L1, 175 means conversion of 175% of that of L1). Numbers above 100 thus relate to amino acid substitutions that improve substrate properties.
Peptides of table 4 are represented by the following sequences SEQ ID NO: 22-31 and 33-46. Control peptide are represented by the following sequences SEQ ID NO: 11 as control L1 and SEQ ID NO: 32 as control L2. Unfortunately, a substantial number of designed peptides were too polar to be analyzed on our LC-MS system (indicated in Table 4 as n.t., not trapped on the column). We therefore also generated and tested these peptides containing two additional N-terminal F-residues to increase hydrophobicity. In this form peptides were trapped on the column and could be analyzed (see Table 5).
Based on the above results we designed 20 peptides containing multiple amino acids that improve substrate properties (see Table 7). The indicated peptides were synthesized and tested in order to identify the best substrate from this group. Here we used a test system with less enzyme (3 times less) compared to the experiments described above.
as §1

[1] = Table 5, peptides with two additional N-terminal F-residues

Chain of PAD4 (Q9UM07 whole entry): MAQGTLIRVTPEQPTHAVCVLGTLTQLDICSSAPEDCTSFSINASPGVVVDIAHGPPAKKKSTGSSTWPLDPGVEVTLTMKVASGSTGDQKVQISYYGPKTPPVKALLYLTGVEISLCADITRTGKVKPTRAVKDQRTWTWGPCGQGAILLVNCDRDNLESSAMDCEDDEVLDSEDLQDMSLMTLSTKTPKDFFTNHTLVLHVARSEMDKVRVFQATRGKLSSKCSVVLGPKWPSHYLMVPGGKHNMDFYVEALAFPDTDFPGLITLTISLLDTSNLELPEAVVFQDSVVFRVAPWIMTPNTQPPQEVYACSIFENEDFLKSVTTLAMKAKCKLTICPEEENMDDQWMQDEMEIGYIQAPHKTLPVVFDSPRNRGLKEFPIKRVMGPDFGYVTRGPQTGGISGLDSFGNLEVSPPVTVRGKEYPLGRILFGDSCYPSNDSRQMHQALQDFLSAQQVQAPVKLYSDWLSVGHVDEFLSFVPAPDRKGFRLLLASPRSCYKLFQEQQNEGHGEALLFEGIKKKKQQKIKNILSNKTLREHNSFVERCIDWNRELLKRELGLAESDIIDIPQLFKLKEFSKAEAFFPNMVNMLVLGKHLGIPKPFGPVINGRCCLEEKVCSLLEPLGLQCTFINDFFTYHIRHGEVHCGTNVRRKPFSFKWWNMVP
Chain of PAD2 (Q9Y2J8 whole entry): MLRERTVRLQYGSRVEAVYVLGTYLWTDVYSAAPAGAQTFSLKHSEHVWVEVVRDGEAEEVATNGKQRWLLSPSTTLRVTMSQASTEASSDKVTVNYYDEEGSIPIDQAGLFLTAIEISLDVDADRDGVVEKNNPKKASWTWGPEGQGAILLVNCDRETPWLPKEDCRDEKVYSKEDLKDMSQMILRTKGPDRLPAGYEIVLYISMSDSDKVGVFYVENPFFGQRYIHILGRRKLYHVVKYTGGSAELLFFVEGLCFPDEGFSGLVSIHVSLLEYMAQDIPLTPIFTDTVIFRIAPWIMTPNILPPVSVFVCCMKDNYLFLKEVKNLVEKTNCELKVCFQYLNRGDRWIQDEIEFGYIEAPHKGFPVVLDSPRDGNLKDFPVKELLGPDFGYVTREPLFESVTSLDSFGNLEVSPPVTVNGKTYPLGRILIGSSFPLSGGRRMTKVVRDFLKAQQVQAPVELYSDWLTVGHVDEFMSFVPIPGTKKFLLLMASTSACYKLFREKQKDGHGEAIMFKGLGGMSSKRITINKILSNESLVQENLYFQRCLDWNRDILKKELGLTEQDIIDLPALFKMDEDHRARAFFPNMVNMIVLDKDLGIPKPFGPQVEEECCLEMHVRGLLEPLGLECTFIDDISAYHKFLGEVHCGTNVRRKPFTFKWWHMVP

Row | Substance | Conversion (%) (PAD2) | Conversion by PAD2 (%) (PAD2) | Conversion by PAD4 (%) (PAD4) | Conversion (%) (PAD4; Table 4, 13-mer peptides) | Conversion (PAD4) | conversion of L2 analogs by PAD4 (PAD4; relative to conversion of L2 (L2 = 100), single substitution at positions -4 to 4) [%] | Conversion (%) (PAD4; [1])
1 | D-S-K-F-K-F-R-Y-A-Y-A-S-D (DSKFKFRYAYASD; not fully specified (C-terminus); printed as D-S-K-F-K-F-R-Y-A-Y-A-S-D) [Peptide 0735-34] | 91 | 91% | <20% | – | – | – | –
2 | D-S-K-H-F-H-R-D-F-I-Y-S-D (DSKHFHRDFIYSD; not fully specified (C-terminus); printed as D-S-K-H-F-H-R-D-F-I-Y-S-D) [Peptide 0608-23] | – | 94% | 69% | – | – | – | –
3 | D-S-K-H-K-S-R-D-F-V-Y-S-D (DSKHKSRDFVYSD; not fully specified (C-terminus); printed as D-S-K-H-K-S-R-D-F-V-Y-S-D) [Peptide 0608-27] | – | 94% | 69% | – | – | – | –
4 | D-S-K-H-L-S-R-E-W-M-W-S-D (DSKHLSREWMWSD; not fully specified (C-terminus); printed as D-S-K-H-L-S-R-E-W-M-W-S-D) [Peptide 0608-24] | – | 95% | 54% | 90% | – | – | –
5 | D-S-K-K-F-D-R-D-H-L-Y-S-D (DSKKFDRDHLYSD; not fully specified (C-terminus); printed as D-S-K-K-F-D-R-D-H-L-Y-S-D) [Peptide 0708-15] | – | 90% | 77% | – | 51 | – | –
6 | D-S-K-K-F-D-R-G-H-L-Y-S-D (DSKKFDRGHLYSD; not fully specified (C-terminus); printed as D-S-K-K-F-D-R-G-H-L-Y-S-D) [Peptide 0708-30] | – | 90% | 80% | – | 63 | – | –
7 | D-S-K-K-F-H-R-D-F-L-Y-S-D (DSKKFHRDFLYSD; not fully specified (C-terminus); printed as D-S-K-K-F-H-R-D-F-L-Y-S-D) [Peptide 0708-25] | – | 97% | 64% | – | 56 | – | –
8 | D-S-K-K-F-H-R-G-F-L-Y-S-D (DSKKFHRGFLYSD; not fully specified (C-terminus); printed as D-S-K-K-F-H-R-G-F-L-Y-S-D) [Peptide 0708-33] | – | 100% | 73% | – | 60 | – | –
9 | D-S-K-K-F-K-R-D-F-L-F-S-D (DSKKFKRDFLFSD; not fully specified (C-terminus); printed as D-S-K-K-F-K-R-D-F-L-F-S-D) [Peptide 0708-26] | – | 97% | 35% | – | 23 | – | –
10 | D-S-K-K-H-D-R-D-F-L-Y-S-D (DSKKHDRDFLYSD; not fully specified (C-terminus); printed as D-S-K-K-H-D-R-D-F-L-Y-S-D) [Peptide 0608-31] | – | 84(=L2) % | 58(=L2) % | 100% (=L2) | 45 (=L2) | 100 | –
11 | D-S-K-K-H-D-R-D-H-L-W-S-D (DSKKHDRDHLWSD; not fully specified (C-terminus); printed as D-S-K-K-H-D-R-D-H-L-W-S-D) [Peptide 0708-20] | – | 95% | 80% | – | 62 | – | –
12 | D-S-K-K-H-F-R-D-K-L-Y-S-D (DSKKHFRDKLYSD; not fully specified (C-terminus); printed as D-S-K-K-H-F-R-D-K-L-Y-S-D) [Peptide 0708-22] | – | 92% | 37% | – | 43 | – | –
13 | D-S-K-K-H-F-R-G-K-L-Y-S-D (DSKKHFRGKLYSD; not fully specified (C-terminus); printed as D-S-K-K-H-F-R-G-K-L-Y-S-D) [Peptide 0708-32] | – | 96% | 22% | – | 24 | – | –
14 | D-S-K-K-K-H-R-E-W-V-W-S-D (DSKKKHREWVWSD; not fully specified (C-terminus); printed as D-S-K-K-K-H-R-E-W-V-W-S-D) [Peptide 0608-32] | – | 100% | 72% | – | – | – | –
15 | D-S-K-K-L-H-R-D-H-M-E-S-D (DSKKLHRDHMESD; not fully specified (C-terminus); printed as D-S-K-K-L-H-R-D-H-M-E-S-D) [Peptide 0608-29] | – | 90% | 65% | – | – | – | –
16 | D-S-K-K-Y-D-R-D-F-L-W-S-D (DSKKYDRDFLWSD; not fully specified (C-terminus); printed as D-S-K-K-Y-D-R-D-F-L-W-S-D) [Peptide 0708-29] | – | 92% | 76% | – | 61 | – | –

Row | Substance | Conversion (%) (PAD2) | Conversion by PAD2 (%) (PAD2) | Conversion by PAD4 (%) (PAD4) | Conversion (%) (PAD4; Table 4, 13-mer peptides) | Conversion (PAD4) | conversion of L2 analogs by PAD4 (PAD4; relative to conversion of L2 (L2 = 100), single substitution at positions -4 to 4) [%] | Conversion (%) (PAD4; [1])
17 | D-S-K-K-Y-D-R-G-F-L-W-S-D (DSKKYDRGFLWSD; not fully specified (C-terminus); printed as D-S-K-K-Y-D-R-G-F-L-W-S-D) [Peptide 0708-34] | – | 93% | 81% | – | 64 | – | –
18 | D-S-K-W-H-H-R-D-H-L-Y-S-D (DSKWHHRDHLYSD; not fully specified (C-terminus); printed as D-S-K-W-H-H-R-D-H-L-Y-S-D) [Peptide 0708-18] | – | 90% | 71% | – | 60 | – | –
19 | D-S-K-W-H-H-R-G-H-L-Y-S-D (DSKWHHRGHLYSD) [Peptide 0708-31] | – | 96% | 71% | – | 52 | – | –
20 | D-S-K-W-Y-H-R-N-K-F-W-S-D (DSKWYHRNKFWSD) [Peptide 0735-27] | 98 | 98% | 45% | – | – | – | –
21 | D-S-Q-W-A-F-R-H-A-L-F-S-D (DSQWAFRHALFSD) [Peptide 0735-37] | 95 | 95% | <20% | – | – | – | –
22 | F-F-D-S-H-K-F-D-R-D-F-I-Y-S-D (FFDSHKFDRDFIYSD) [Peptide 0612-45] | – | 97 ** % | 94% | – | – | – | 100
23 | F-F-D-S-H-K-H-S-R-E-W-L-W-S-D (FFDSHKHSREWLWSD) [Peptide 0612-38] | – | 96% | 72% | – | – | – | 100
24 | F-F-D-S-H-K-K-S-R-E-Y-V-F-S-D (FFDSHKKSREYVFSD) [Peptide 0612-44] | – | 100% | 58% | – | – | – | 100
25 | F-F-D-S-H-K-L-H-R-E-W-M-W-S-D (FFDSHKLHREWMWSD) [Peptide 0612-46] | – | 92 ** % | 91% | – | – | – | 100
26 | F-F-D-S-H-K-W-H-R-D-F-F-Y-S-D (FFDSHKWHRDFFYSD) [Peptide 0612-37] | – | 96 ** % | 88% | – | – | – | 100
27 | F-F-D-S-K-H-F-D-R-E-W-I-W-S-D (FFDSKHFDREWIWSD) [Peptide 0612-30] | – | 94 ** % | 89% | – | – | – | 100
28 | F-F-D-S-K-H-K-S-R-D-F-V-Y-S-D (FFDSKHKSRDFVYSD) [Peptide 0612-29] | – | 92% | 77% | – | – | – | 100
29 | F-F-D-S-K-H-L-S-R-E-W-M-W-S-D (FFDSKHLSREWMWSD) [Peptide 0612-26] | – | 97% | 73% | – | – | – | 100
30 | F-F-D-S-K-K-F-S-R-D-H-I-E-S-D (FFDSKKFSRDHIESD) [Peptide 0612-35] | – | 90% | 63% | – | – | – | 97
31 | F-F-D-S-K-K-K-H-R-E-W-V-W-S-D (FFDSKKKHREWVWSD) [Peptide 0612-34] | – | 99% | 76% | – | – | – | 100
32 | F-F-D-S-K-K-W-S-R-E-Y-F-F-S-D (FFDSKKWSREYFFSD) [Peptide 0612-32] | – | 94% | 76% | – | – | – | 100
